Experimental findings from US20130345135A1 (WISCONSIN ALUMNI RESEARCH FOUNDATION, published 2013) are described below.

For this assay, the target named is myosin in murine skinned myocardium (principal isoform alpha-cardiac myosin) (mouse, UniProt Q02566 1-1938). Description: cell-based or functional assay.
myosin in murine skinned myocardium (principal isoform alpha-cardiac myosin), sequence (Q02566 whole entry, canonical isoform): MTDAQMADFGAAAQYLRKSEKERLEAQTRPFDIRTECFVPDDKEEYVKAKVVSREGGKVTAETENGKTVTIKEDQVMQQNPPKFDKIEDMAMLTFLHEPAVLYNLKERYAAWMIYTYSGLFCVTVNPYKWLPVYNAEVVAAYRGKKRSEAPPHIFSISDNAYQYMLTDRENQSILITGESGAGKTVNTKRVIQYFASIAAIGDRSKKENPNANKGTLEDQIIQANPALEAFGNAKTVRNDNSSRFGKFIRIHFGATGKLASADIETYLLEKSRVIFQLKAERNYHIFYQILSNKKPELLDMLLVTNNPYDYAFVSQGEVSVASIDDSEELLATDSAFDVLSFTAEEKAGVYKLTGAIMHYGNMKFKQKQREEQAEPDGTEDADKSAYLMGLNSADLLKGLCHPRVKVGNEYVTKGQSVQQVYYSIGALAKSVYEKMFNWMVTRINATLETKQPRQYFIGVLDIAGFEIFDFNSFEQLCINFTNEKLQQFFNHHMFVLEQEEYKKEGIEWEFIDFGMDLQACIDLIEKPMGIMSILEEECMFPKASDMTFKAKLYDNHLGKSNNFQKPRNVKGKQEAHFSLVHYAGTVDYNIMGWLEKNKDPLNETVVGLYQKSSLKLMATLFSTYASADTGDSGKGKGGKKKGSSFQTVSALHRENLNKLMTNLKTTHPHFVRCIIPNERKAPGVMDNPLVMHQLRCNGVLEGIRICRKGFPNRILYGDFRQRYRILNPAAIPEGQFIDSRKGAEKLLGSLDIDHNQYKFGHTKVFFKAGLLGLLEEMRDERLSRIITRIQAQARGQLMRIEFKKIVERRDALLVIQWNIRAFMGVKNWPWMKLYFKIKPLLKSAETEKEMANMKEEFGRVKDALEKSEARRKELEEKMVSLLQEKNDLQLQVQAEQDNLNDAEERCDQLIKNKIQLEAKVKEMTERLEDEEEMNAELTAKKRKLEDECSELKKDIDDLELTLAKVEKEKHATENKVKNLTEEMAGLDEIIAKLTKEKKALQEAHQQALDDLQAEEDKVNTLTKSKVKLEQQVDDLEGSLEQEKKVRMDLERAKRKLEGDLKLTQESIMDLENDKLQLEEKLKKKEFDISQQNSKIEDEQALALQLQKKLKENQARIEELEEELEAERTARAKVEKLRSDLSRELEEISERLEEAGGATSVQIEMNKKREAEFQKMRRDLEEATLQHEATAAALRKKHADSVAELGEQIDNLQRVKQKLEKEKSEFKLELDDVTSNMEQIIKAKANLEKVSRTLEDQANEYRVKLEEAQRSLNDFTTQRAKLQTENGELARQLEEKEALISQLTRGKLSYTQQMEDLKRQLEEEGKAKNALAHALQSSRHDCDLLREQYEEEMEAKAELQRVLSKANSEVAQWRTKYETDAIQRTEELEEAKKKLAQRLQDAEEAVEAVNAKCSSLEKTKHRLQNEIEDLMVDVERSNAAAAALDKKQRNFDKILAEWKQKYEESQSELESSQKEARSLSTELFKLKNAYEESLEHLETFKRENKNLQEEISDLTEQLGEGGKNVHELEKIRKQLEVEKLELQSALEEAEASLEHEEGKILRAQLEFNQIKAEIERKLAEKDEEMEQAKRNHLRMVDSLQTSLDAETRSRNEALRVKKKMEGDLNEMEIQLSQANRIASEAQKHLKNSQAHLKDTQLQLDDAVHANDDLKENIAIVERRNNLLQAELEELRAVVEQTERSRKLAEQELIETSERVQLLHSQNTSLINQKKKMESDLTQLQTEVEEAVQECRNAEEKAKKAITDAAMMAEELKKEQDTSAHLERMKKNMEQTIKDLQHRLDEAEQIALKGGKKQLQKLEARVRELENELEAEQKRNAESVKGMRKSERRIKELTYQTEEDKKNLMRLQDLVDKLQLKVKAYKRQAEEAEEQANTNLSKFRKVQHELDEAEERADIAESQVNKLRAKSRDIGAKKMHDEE

B1: peptide 302A (peptide)
peptide: FSSLLKKRDAFRRDAKLE
As for B1, the “force at intermediate pCa (scaled to force at pCa 4.5), mouse, 50 uM peptide, fold of control” value was approximately 2 x control and the “force at pCa 5.9 (scaled to force at pCa 4.5), mouse, 50 uM peptide, fold of untreated” value was ~3 x (fold of untreated force).
